Assay results reported in article PMC3598421.

T1: BdSWN5 (Brachypodium distachyon, UniProt I2E2W5 1-346)
T1 sequence: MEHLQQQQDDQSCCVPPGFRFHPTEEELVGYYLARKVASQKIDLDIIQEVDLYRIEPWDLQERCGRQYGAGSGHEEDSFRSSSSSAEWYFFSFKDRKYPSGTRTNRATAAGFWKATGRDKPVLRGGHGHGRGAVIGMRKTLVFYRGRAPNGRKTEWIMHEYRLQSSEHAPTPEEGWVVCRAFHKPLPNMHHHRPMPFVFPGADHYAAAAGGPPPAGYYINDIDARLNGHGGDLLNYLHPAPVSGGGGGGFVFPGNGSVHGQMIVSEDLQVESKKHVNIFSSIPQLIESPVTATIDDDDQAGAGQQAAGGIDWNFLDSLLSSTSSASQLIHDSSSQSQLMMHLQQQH


Molecular target: T1, BdSWN5
Assay: competition

Binder | binding result
SNBE1 M1 motif (dsDNA) DNA 1: AGCATACATTTATAGGAAGCGTATTCTCGCAGTCA DNA 2: TGACTGCGAGAATACGCTTCCTATAAATGTATGCT | no binding
SNBE2 M2 motif (dsDNA) DNA 1: TTTTACATTGCATATGCTTTGTATCAATTGCCCAA DNA 2: TTGGGCAATTGATACAAAGCATATGCAATGTAAAA | no binding
